Laboratory results from the supplement of paper PMC12764529.
± gives the half width of the 95% confidence interval.

Assays:
[1] = folding stability dG unfold from trypsin proteolysis; higher = more stable
Procedure, shortened: (§1)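 Unfolding free energy was derived, per protease or combined, by relating Bayesian-fitted K50 values from sequencing counts to a sequence-predicted unfolded-state K50 and a shared folded-state K50. The underlying digests exposed cysteine-free mini-proteins under 80 residues, in a PA-tagged cDNA display construct, to trypsin and chymotrypsin at 11 threefold-diluted concentrations and to a no-protease condition. A filter kept only designs with AlphaFold2 dimer inter-PAE above 15.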

[2] = folding stability dG unfold from chymotrypsin proteolysis; higher = more stable
Procedure, shortened: as §1

[3] = folding stability dG unfold (combined trypsin and chymotrypsin); higher = more stable
Procedure, shortened: as §1

SAGGPETRTFTIPAAPATVTVTLEKVGDGYRVSLTLTNPDGQTVEVPPDQPVVIPAGASVGAALAPESAGGS [r16_669_TrMRF]
folding stability dG unfold [1]: 1.01 ± 0.034 kcal/mol
folding stability dG unfold [2]: 1.53 ± 0.091 kcal/mol
folding stability dG unfold [3]: 1.35 ± 0.1 kcal/mol

SAGGPEVEAERFGDTVLVRITLLDPETGEPYEFLAIATRRPDGTVTVTIIHPDGRPSTIPLPLLPLASAGGS [r16_154_TrMRF]
folding stability dG unfold [1]: 2.63 ± 0.16 kcal/mol
folding stability dG unfold [2]: 1.88 ± 0.039 kcal/mol
folding stability dG unfold [3]: 2.26 ± 0.14 kcal/mol

SAGGPGAEIWFIKIPIEIEMKMKRKRENDPDGNPRPEWEMEMKIEIPIEIYPIRVRLDPDGKIKSIEFSAGG [r13_148_TrROS]
folding stability dG unfold [1]: 2.77 ± 0.15 kcal/mol
folding stability dG unfold [2]: 4.3 ± 0.11 kcal/mol
folding stability dG unfold [3]: 3.67 ± 0.23 kcal/mol

SAGGPGMEPIGEIKLDDGVTIEVWRPPNGWYRAKVEFPDNGKQINYPFNPNMSFEQAKDQIKELARKLSAGG [r13_624_TrROS]
folding stability dG unfold [1]: 0.519 ± 0.13 kcal/mol
folding stability dG unfold [2]: 1.86 ± 0.15 kcal/mol
folding stability dG unfold [3]: 1.52 ± 0.36 kcal/mol

SAGGPGRMREREFEIEFPFEPGQSIEDALRELIGLPPGIQIEDIKVEVDPEDGWVKISVTITVYDPNDSAGG [r13_828_TrROS]
folding stability dG unfold [1]: 1.22 ± 0.042 kcal/mol
folding stability dG unfold [2]: 1.29 ± 0.071 kcal/mol
folding stability dG unfold [3]: 1.29 ± 0.15 kcal/mol

SAGGPKPKTYDIMIPFDSEEEAEKLMENPEWAKEIAKEIAPLFPGYDIKVEVSWHPETGYFMVKITVSAGGS [r16_320_TrROS]
folding stability dG unfold [1]: 3.21 ± 0.18 kcal/mol
folding stability dG unfold [2]: 4.12 ± 0.18 kcal/mol
folding stability dG unfold [3]: 4.01 ± 0.13 kcal/mol

SAGGPKWYYITIKIPDDPKKAERLVDRLQDLFGEDVRINVNPGNNHVTVWIPNDLRPLLKDHGLEITPSAGG [r13_156_TrROS]
folding stability dG unfold [1]: 2.94 ± 0.086 kcal/mol
folding stability dG unfold [2]: 2.95 ± 0.02 kcal/mol
folding stability dG unfold [3]: 2.93 ± 0.047 kcal/mol

SAGGPMKPFLKNFSGPEEAIAFVNKLREELKGPVGLTLIFPDGSVIEVVDPQKLESIDNFEVIVTVSESAGG [r13_620_JUSTAS]
folding stability dG unfold [1]: 1.39 ± 0.039 kcal/mol
folding stability dG unfold [2]: 1.8 ± 0.085 kcal/mol
folding stability dG unfold [3]: 1.69 ± 0.096 kcal/mol

SAGGPMKVKVTLIVRDKETGEWKEVEREMTLDELRELLASLPPDAEVFVKIEVDGKTVTLSLEELKALSAGG [r13_254_TrROS_Hall]
folding stability dG unfold [1]: 3.84 ± 0.17 kcal/mol
folding stability dG unfold [2]: 4.32 ± 0.097 kcal/mol
folding stability dG unfold [3]: 4.29 ± 0.12 kcal/mol

SAGGPNFTIKIEIEEIPNGVRVHKMTMELPDGHAWLMVMLYSPDPGKMFMIMVPVDPNGGIEDINIMPSAGG [r13_323_TrROS]
folding stability dG unfold [1]: 2.52 ± 0.077 kcal/mol
folding stability dG unfold [2]: 4.12 ± 0.074 kcal/mol
folding stability dG unfold [3]: 3.92 ± 0.19 kcal/mol

SAGGPNLYIFIKIEHKGQTVTFMYPVPPGNLEKLVDEIASMGFPEIKIEEIYIFPPNGWIPVTVRLPSAGGS [r8_219_TrROS]
folding stability dG unfold [1]: 2.88 ± 0.13 kcal/mol
folding stability dG unfold [2]: 3.71 ± 0.041 kcal/mol
folding stability dG unfold [3]: 3.4 ± 0.14 kcal/mol

SAGGPPGWKPVEMKITVMFDDPEEAAEKIKEEVRSHFPNIEITKVEVQRNPENNMYMVTVDIRMWVPSAGGS [r8_120_TrROS]
folding stability dG unfold [1]: 3.08 ± 0.18 kcal/mol
folding stability dG unfold [2]: 3.37 ± 0.081 kcal/mol
folding stability dG unfold [3]: 3.37 ± 0.11 kcal/mol

SAGGPPIKKIEITKIHPGKGIIQVSIKLPGDGHPIMVRAEIDDPEPGKIKIEIQDPNNGQPQEITIKFSAGG [r13_337_TrROS]
folding stability dG unfold [1]: 1.23 ± 0.094 kcal/mol
folding stability dG unfold [2]: 0.683 ± 0.08 kcal/mol
folding stability dG unfold [3]: 1.1 ± 0.28 kcal/mol

SAGGPPRPVRIDIDPDAGSIEIMFPNGWPYEIPIPPDSIDEITLDPNDHVIEIKMPGKEIKFDIEPVSAGGS [r16_104_TrROS]
folding stability dG unfold [1]: -0.376 ± 0.12 kcal/mol
folding stability dG unfold [2]: 0.757 ± 0.029 kcal/mol
folding stability dG unfold [3]: 0.443 ± 0.11 kcal/mol

SAGGPPVAEIRVTEEDPETGVVRMEATLPEAPRPVRATGTRLDPGGGTVLVTVTDPDGGPDTTTTLAASAGG [r13_337_JUSTAS]
folding stability dG unfold [1]: -0.308 ± 0.1 kcal/mol
folding stability dG unfold [2]: 0.221 ± 0.12 kcal/mol
folding stability dG unfold [3]: 0.0684 ± 0.12 kcal/mol

SAGGPPVIRFPTAEIPASGTIEDIVAAIERATGEPLPEELVEQILNGKTIEEIIELLKKRGYPVEYLSAGGS [r16_601_JUSTAS]
folding stability dG unfold [1]: 3.84 ± 0.14 kcal/mol
folding stability dG unfold [2]: 3.11 ± 0.074 kcal/mol
folding stability dG unfold [3]: 3.33 ± 0.088 kcal/mol

SAGGPRVEVEEVELEGDYLVVRARVEVPLDDGTYEFELTLVLPVPPPPLPLPPVDPRFPRAPDDDLVSAGGS [r8_234_TrMRF]
folding stability dG unfold [1]: 0.584 ± 0.073 kcal/mol
folding stability dG unfold [2]: 1.33 ± 0.073 kcal/mol
folding stability dG unfold [3]: 0.971 ± 0.13 kcal/mol

SAGGPVFEVTPEVDPDTDLVTYTVRVPADVDFAAVAKALETEFADGSRAEVKPLPDGTVVVVVRLPASAGGS [r8_255_TrMRF]
folding stability dG unfold [1]: 1.25 ± 0.023 kcal/mol
folding stability dG unfold [2]: 0.307 ± 0.12 kcal/mol
folding stability dG unfold [3]: 0.942 ± 0.059 kcal/mol
